Results from patent US20240150451A1 (Janssen / Centocor, published 2024).
Where a chain is given by its changes, count along the chain named. Each block holds one binder with its values, some of them ahead of it.

Legend:
[1] = biological target: T1, recombinant full-length tau 2N4R (control tau) (human, UniProt P10636 2-758); experiment: direct ELISA, 10 ng/well coated control tau, hybridoma screening
T1 construct: also called recombinant WT (2N4R) tau; Rec; Tau
Procedure: Obtained hybridomas were seeded in 96-well plates and screened after 10 days in a direct ELISA on 25 ng/well coated PHF-tau as described below. Positive cells were tested for cross-reactivity on 10 ng/well coated with control tau (SEQ ID NO: 51) expressed in E. Coli BL21 cells and purified by heat treatment and ammonium sulphate precipitation. […] PT/66, PT/69 and hTau/60 were prioritized for V-region cloning and humanization.

[2] = biological target: T2, Tau peptide Start 419 Stop 438; experiment: Pepscan ELISA on an array of linear 20-mer Tau 441 peptides; design: peptide ELISA signal (no name or unit printed): unit not given here
T2 peptide: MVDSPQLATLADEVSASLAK
Excerpt: (§1) An amino functionalized polypropylene support was obtained by grafting with a proprietary hydrophilic polymer formulation, followed by reaction with t-butyloxycarbonyl-hexamethylenediamine (BocHMDA) using dicyclohexylcarbodiimide (DCC) with N-hydroxybenzotriazole (HOBt), and subsequent cleavage of the Boc-groups using trifluoroacetic acid (TFA). Standard Fmoc-peptide synthesis was used to synthesize peptides on the amino-functionalized solid support by custom modified JANUS liquid handling stations (Perkin Elmer). Synthesis of structural mimics was done using Pepscan's proprietary Chemically Linked Peptides on Scaffolds (CLIPS) technology. CLIPS technology allows to structure peptides into single loops, double loops, triple loops, sheet-like folds, helix-like folds, and combinations thereof. CLIPS templates are coupled to cysteine residues. The side-chains of multiple cysteines in the peptides are coupled to one or two CLIPS templates. For example, a 0.5 mM solution of the P2 CLIPS (2,6-bis(bromomethyl)pyridine) is dissolved in ammonium bicarbonate (20 mM, pH 7.8)/acetonitrile (1:3 (v/v)). This solution is added onto the peptide arrays. The CLIPS template will bind to side-chains of two cysteines as present in the solid-phase bound peptides of the peptide-arrays (455 wells plate with 3 μl wells). The peptide arrays are gently shaken in the solution for 30 to 60 minutes while completely covered in solution. Finally, the peptide arrays are washed extensively with excess of H₂O and sonicated in disrupt-buffer containing 1% SDS/0.1% beta-mercaptoethanol in PBS (pH 7.2) at 70° C. for 30 minutes, followed by sonication in H₂O for another 45 minutes. The T3 CLIPS carrying peptides were made in a similar way but now with three cysteines.
(§2) The binding of antibodies (recombinantly expressed as IgG2a) to each of the synthesized peptides was tested in a pepscan-based ELISA. The peptide arrays were incubated with primary antibody solution (overnight at 4° C.). After washing, the peptide arrays were incubated with a 1/1000 dilution of an appropriate antibody peroxidase conjugate (SBA; Table 4) for one hour at 25° C. After washing, the peroxidase substrate 2,2′-azino-di-3-ethylbenzthiazoline sulfonate (ABTS) and 20 μl/ml of 3 percent H₂O₂ were added. After one hour, the color development was measured.

[3] = biological target: T3, Tau peptide Start 411 Stop 430; experiment: as above; design: peptide ELISA signal (no name or unit printed): unit not given here
T3 peptide: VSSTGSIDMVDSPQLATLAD
Excerpt: as §1, §2

[4] = biological target: Tau peptide Start 1 Stop 20 (Synthetic linear peptide immobilised on a Pepscan array; the attachment to the array cannot be carried by the letters.); experiment: as above; design: peptide ELISA signal (no name or unit printed): unit not given here
Excerpt: as §1, §2

[5] = biological target: T4, Tau peptide Start 3 Stop 22 (Synthetic linear peptide immobilised on a Pepscan array; the attachment to the array cannot be carried by the letters.); experiment: as above; design: peptide ELISA signal (no name or unit printed): unit not given here
T4 peptide: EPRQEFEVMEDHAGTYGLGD
Excerpt: as §1, §2

[6] = biological target: T5, Tau peptide Start 417 Stop 436; experiment: as above; design: peptide ELISA signal (no name or unit printed): unit not given here
T5 peptide: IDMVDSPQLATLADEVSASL
Excerpt: as §1, §2

[7] = biological target: T6, Tau peptide Start 413 Stop 432; experiment: as above; design: peptide ELISA signal (no name or unit printed): unit not given here
T6 peptide: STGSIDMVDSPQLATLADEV
Excerpt: as §1, §2

[8] = biological target: T7, Tau peptide Start 415 Stop 434; experiment: as above; design: peptide ELISA signal (no name or unit printed): unit not given here
T7 peptide: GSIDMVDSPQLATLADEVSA
Excerpt: as §1, §2

[9] = biological target: T8, Tau peptide Start 421 Stop 440; experiment: as above; design: peptide ELISA signal (no name or unit printed): unit not given here
T8 peptide: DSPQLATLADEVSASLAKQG
Excerpt: as §1, §2

[10] = biological target: T9, Tau peptide Start 422 Stop 441; experiment: as above; design: peptide ELISA signal (no name or unit printed): unit not given here
T9 peptide: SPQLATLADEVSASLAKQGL
Excerpt: as §1, §2

Chain of Tau peptide Start 1 Stop 20 (Synthetic linear peptide immobilised on a Pepscan array; the attachment to the array cannot be carried by the letters.) (peptide, as listed by the source limits assumed): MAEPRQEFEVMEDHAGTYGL

binding result [1]: binds | peptide ELISA signal (no name or unit printed) [2]: 2090 | peptide ELISA signal (no name or unit printed) [3]: 29 | peptide ELISA signal (no name or unit printed) [4]: 38 | peptide ELISA signal (no name or unit printed) [5]: 44 | peptide ELISA signal (no name or unit printed) [6]: 637 | binding result [7]: no binding | peptide ELISA signal (no name or unit printed) [7]: 38 | binding result [8]: no binding | peptide ELISA signal (no name or unit printed) [8]: 40 | peptide ELISA signal (no name or unit printed) [9]: 2880 | peptide ELISA signal (no name or unit printed) [10]: 2930
B1: PT53 monoclonal antibody (recombinant, mouse IgG2a/kappa) (antibody, V domains shown)
VH: EVKLMESGGGLVQPGASLRLSCAASGFTFTDYYMSWVRQPPGKAPEWLALIRNKANGYTTKYAASVKGRFTISRDNSQNILYLQMNTLRAEDSATYYCVKAVWFAYWGQGTLVTVSA
VL: DIVITQDELSNPVTSGESVSISCRSSKSLLYKDGKTYLNWFLQRPGQSPQLLIYLMSTRASGVSDRFSGSGSGTDFTLEISRVKAEDVGVYYCLQLVEYPYTFGGGTKLEIKR
notes: also called PT50/PT53

binding result [1]: binds | peptide ELISA signal (no name or unit printed) [2]: 2900 | peptide ELISA signal (no name or unit printed) [3]: 31 | peptide ELISA signal (no name or unit printed) [4]: 43 | peptide ELISA signal (no name or unit printed) [5]: 45 | peptide ELISA signal (no name or unit printed) [6]: 2800 | binding result [7]: no binding | peptide ELISA signal (no name or unit printed) [7]: 30 | binding result [8]: no binding | peptide ELISA signal (no name or unit printed) [8]: 78 | peptide ELISA signal (no name or unit printed) [9]: 2900 | peptide ELISA signal (no name or unit printed) [10]: 2920
B2: PT81 monoclonal antibody (recombinant, mouse IgG2a/kappa) (antibody, V domains shown)
VH: QVQLQQPGAELVRPGASVILSCKASGYTFTNSWIHWVKQRPGRVLEWIGRIDPNSGGTRYNENFKSKATLTVDKPSSTAYMQLSSLTSEDSAVYFCSRGVLHDYWGQGTTLTVSS
VL: B1 VL with G69V, K84Q, L94Q
